Experimental data taken from article PMC3438196.

Experiments:
[1] = target: T1, codon optimized Vif SLQ144-146AAA MAPPIT prey (pMG2-VifoptSLQ), P12504; experiment: MAPPIT; conditions: chain shown with the change
[2] = target: T1, codon optimized Vif SLQ144-146AAA …; experiment: MAPPIT; conditions: chain shown with the change; remark: listed apart in the source

Binder | percent of parent [1] | percent of parent [2]
Apobec3G-GFP MAPPIT bait (pCEL-Apobec3G-GFP), Q9HC16 R30L (protein) MKPHFRNTVERMYRDTFSYNFYNRPILSRLNTVWLCYEVKTKGPSRPPLDAKIFRGQVYSELKYHPEMRFFHWFSKWRKLHRDQEYEVTWYISWSPCTKCTRDMATFLAEDPKVTLTIFVARLYYFWDPDYQEALRSLCQKRDGPRATMKIMNYDEFQHCWSKFVYSQRELFEPWNNLPKYYILLHIMLGEILRHSMDPPTFTFNFNNEPWVRGRHETYLCYEVERMHNDTWVLLNQRRGFLCNQAPHKHGFLEGRHAELCFLDVIPFWKLDLDQDYRVTCFTSWSPCFSCAQEMAKFISKNKHVSLCIFTARIYDDQGRCQEGLRTLAEAGAKISIMTYSEFKHCWDTFVDHQGCPFQPWDGLDEHSQDLSGRLRAILQNQEN | 21 % of WT | 21 % of WT
Apobec3G-GFP MAPPIT bait (pCEL-Apobec3G-GFP), Q9HC16 R78W (protein) MKPHFRNTVERMYRDTFSYNFYNRPILSRRNTVWLCYEVKTKGPSRPPLDAKIFRGQVYSELKYHPEMRFFHWFSKWWKLHRDQEYEVTWYISWSPCTKCTRDMATFLAEDPKVTLTIFVARLYYFWDPDYQEALRSLCQKRDGPRATMKIMNYDEFQHCWSKFVYSQRELFEPWNNLPKYYILLHIMLGEILRHSMDPPTFTFNFNNEPWVRGRHETYLCYEVERMHNDTWVLLNQRRGFLCNQAPHKHGFLEGRHAELCFLDVIPFWKLDLDQDYRVTCFTSWSPCFSCAQEMAKFISKNKHVSLCIFTARIYDDQGRCQEGLRTLAEAGAKISIMTYSEFKHCWDTFVDHQGCPFQPWDGLDEHSQDLSGRLRAILQNQEN | – | 16 % of WT
Apobec3G-GFP MAPPIT bait (pCEL-Apobec3G-GFP), Q9HC16 R102G (protein) MKPHFRNTVERMYRDTFSYNFYNRPILSRRNTVWLCYEVKTKGPSRPPLDAKIFRGQVYSELKYHPEMRFFHWFSKWRKLHRDQEYEVTWYISWSPCTKCTGDMATFLAEDPKVTLTIFVARLYYFWDPDYQEALRSLCQKRDGPRATMKIMNYDEFQHCWSKFVYSQRELFEPWNNLPKYYILLHIMLGEILRHSMDPPTFTFNFNNEPWVRGRHETYLCYEVERMHNDTWVLLNQRRGFLCNQAPHKHGFLEGRHAELCFLDVIPFWKLDLDQDYRVTCFTSWSPCFSCAQEMAKFISKNKHVSLCIFTARIYDDQGRCQEGLRTLAEAGAKISIMTYSEFKHCWDTFVDHQGCPFQPWDGLDEHSQDLSGRLRAILQNQEN | 44 % of WT | 44 % of WT
Apobec3G-GFP MAPPIT bait (pCEL-Apobec3G-GFP), Q9HC16 R122C (protein) MKPHFRNTVERMYRDTFSYNFYNRPILSRRNTVWLCYEVKTKGPSRPPLDAKIFRGQVYSELKYHPEMRFFHWFSKWRKLHRDQEYEVTWYISWSPCTKCTRDMATFLAEDPKVTLTIFVACLYYFWDPDYQEALRSLCQKRDGPRATMKIMNYDEFQHCWSKFVYSQRELFEPWNNLPKYYILLHIMLGEILRHSMDPPTFTFNFNNEPWVRGRHETYLCYEVERMHNDTWVLLNQRRGFLCNQAPHKHGFLEGRHAELCFLDVIPFWKLDLDQDYRVTCFTSWSPCFSCAQEMAKFISKNKHVSLCIFTARIYDDQGRCQEGLRTLAEAGAKISIMTYSEFKHCWDTFVDHQGCPFQPWDGLDEHSQDLSGRLRAILQNQEN | 16 % of WT | –
Apobec3G-GFP MAPPIT bait (pCEL-Apobec3G-GFP), Q9HC16 K79M (protein) MKPHFRNTVERMYRDTFSYNFYNRPILSRRNTVWLCYEVKTKGPSRPPLDAKIFRGQVYSELKYHPEMRFFHWFSKWRMLHRDQEYEVTWYISWSPCTKCTRDMATFLAEDPKVTLTIFVARLYYFWDPDYQEALRSLCQKRDGPRATMKIMNYDEFQHCWSKFVYSQRELFEPWNNLPKYYILLHIMLGEILRHSMDPPTFTFNFNNEPWVRGRHETYLCYEVERMHNDTWVLLNQRRGFLCNQAPHKHGFLEGRHAELCFLDVIPFWKLDLDQDYRVTCFTSWSPCFSCAQEMAKFISKNKHVSLCIFTARIYDDQGRCQEGLRTLAEAGAKISIMTYSEFKHCWDTFVDHQGCPFQPWDGLDEHSQDLSGRLRAILQNQEN | – | 56 % of WT
Apobec3G-GFP MAPPIT bait (pCEL-Apobec3G-GFP), Q9HC16 H81L (protein) MKPHFRNTVERMYRDTFSYNFYNRPILSRRNTVWLCYEVKTKGPSRPPLDAKIFRGQVYSELKYHPEMRFFHWFSKWRKLLRDQEYEVTWYISWSPCTKCTRDMATFLAEDPKVTLTIFVARLYYFWDPDYQEALRSLCQKRDGPRATMKIMNYDEFQHCWSKFVYSQRELFEPWNNLPKYYILLHIMLGEILRHSMDPPTFTFNFNNEPWVRGRHETYLCYEVERMHNDTWVLLNQRRGFLCNQAPHKHGFLEGRHAELCFLDVIPFWKLDLDQDYRVTCFTSWSPCFSCAQEMAKFISKNKHVSLCIFTARIYDDQGRCQEGLRTLAEAGAKISIMTYSEFKHCWDTFVDHQGCPFQPWDGLDEHSQDLSGRLRAILQNQEN | – | 53 % of WT
